The supplement of paper PMC10567573

B1: NCF4 (parent)
chain: FVKILKDFPEEDDPTNWLRCYYYE

Variants of: B1
Test: protein stability index of a GFP-peptide fusion (GPS, HEK-293T) (PSI 1-6); higher = more stable
Details: c terminus: a fixed tail appended
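Also: lentivirally expressed fusions sorted by FACS into six bins by GFP to DsRed ratio, PSI derived from sequencing read proportions per bin multiplied by bin number.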

Variant | protein stability index
FVKPLKDFPEEDDPTNWLRCYYYE | 2.15
FVKKLKDFPEEDDPTNWLRCYYYE | 3.09
FVKHLKDFPEEDDPTNWLRCYYYE | 2.17
FVKLLKDFPEEDDPTNWLRCYYYE | 2.02
FVKALKDFPEEDDPTNWLRCYYYE | 1.61
FVKQLKDFPEEDDPTNWLRCYYYE | 2.15
FVKSLKDFPEEDDPTNWLRCYYYE | 2.7
FVKGLKDFPEEDDPTNWLRCYYYE | 1.9
FVKDLKDFPEEDDPTNWLRCYYYE | 1.25
FVKNLKDFPEEDDPTNWLRCYYYE | 2.76
FVKFLKDFPEEDDPTNWLRCYYYE | 3.08
FVKTLKDFPEEDDPTNWLRCYYYE | 1.54
FVKELKDFPEEDDPTNWLRCYYYE | 1.65
FVKMLKDFPEEDDPTNWLRCYYYE | 2.39
FVKWLKDFPEEDDPTNWLRCYYYE | 3.72
FMKILKDFPEEDDPTNWLRCYYYE | 1.96
FKKILKDFPEEDDPTNWLRCYYYE | 2.16
FSKILKDFPEEDDPTNWLRCYYYE | 1.62
FAKILKDFPEEDDPTNWLRCYYYE | 1.88
FIKILKDFPEEDDPTNWLRCYYYE | 1.46
FCKILKDFPEEDDPTNWLRCYYYE | 1.95
FRKILKDFPEEDDPTNWLRCYYYE | 2.38
FQKILKDFPEEDDPTNWLRCYYYE | 3.03
FGKILKDFPEEDDPTNWLRCYYYE | 2.24

Variant | protein stability index
FDKILKDFPEEDDPTNWLRCYYYE | 2.05
FHKILKDFPEEDDPTNWLRCYYYE | 1.57
FNKILKDFPEEDDPTNWLRCYYYE | 2.11
FWKILKDFPEEDDPTNWLRCYYYE | 3.35
FLKILKDFPEEDDPTNWLRCYYYE | 1.76
FEKILKDFPEEDDPTNWLRCYYYE | 3.02
FTKILKDFPEEDDPTNWLRCYYYE | 2.4
FYKILKDFPEEDDPTNWLRCYYYE | 2.08
FPKILKDFPEEDDPTNWLRCYYYE | 2.82
FVKILKDFPEECDPTNWLRCYYYE | 2.14
FVKILKDFPEEEDPTNWLRCYYYE | 2.04
FVKILKDFPEETDPTNWLRCYYYE | 1.37
FVKILKDFPEEMDPTNWLRCYYYE | 2.39
FVKILKDFPEEYDPTNWLRCYYYE | 2.35
FVKILKDFPEEKDPTNWLRCYYYE | 1.41
FVKILKDFPEEQDPTNWLRCYYYE | 2.75
FVKILKDFPEEHDPTNWLRCYYYE | 1.52
FVKILKDFPEEGDPTNWLRCYYYE | 2.33
FVKILKDFPEESDPTNWLRCYYYE | 2.4
FVKILKDFPEEPDPTNWLRCYYYE | 1.03
FVKILKQFPEEDDPTNWLRCYYYE | 1.07
FVKILKLFPEEDDPTNWLRCYYYE | 2.16
FVKILKVFPEEDDPTNWLRCYYYE | 2.69
FVKILKCFPEEDDPTNWLRCYYYE | 4.49

Variant | protein stability index
FVKILKPFPEEDDPTNWLRCYYYE | 2.49
FVKILKHFPEEDDPTNWLRCYYYE | 1.77
FVKILKEFPEEDDPTNWLRCYYYE | 1
FVKILKWFPEEDDPTNWLRCYYYE | 1.07
FVKIPKDFPEEDDPTNWLRCYYYE | 2.95
FVKINKDFPEEDDPTNWLRCYYYE | 1.68
FVKIHKDFPEEDDPTNWLRCYYYE | 3.08
FVKIAKDFPEEDDPTNWLRCYYYE | 1.02
FVKIFKDFPEEDDPTNWLRCYYYE | 1.86
FVKIRKDFPEEDDPTNWLRCYYYE | 2.09
FVKIYKDFPEEDDPTNWLRCYYYE | 2.23
FVKIEKDFPEEDDPTNWLRCYYYE | 1.96
FVKIIKDFPEEDDPTNWLRCYYYE | 1.6
FVKITKDFPEEDDPTNWLRCYYYE | 2.17
FVKIDKDFPEEDDPTNWLRCYYYE | 2.1
FVKIWKDFPEEDDPTNWLRCYYYE | 1.06
FVKILKDFPEFDDPTNWLRCYYYE | 3.95
FVKILKDFPEYDDPTNWLRCYYYE | 1.96
FVKILKDFPEIDDPTNWLRCYYYE | 2.4
FVKILKDFPEWDDPTNWLRCYYYE | 2.04
FVKILKDFPEQDDPTNWLRCYYYE | 2.98
FVKILKDFPERDDPTNWLRCYYYE | 1.75
FVKILKDFPEMDDPTNWLRCYYYE | 1.01
FVKILKDFPELDDPTNWLRCYYYE | 2.74

Variant | protein stability index
FVKILKDFPEDDDPTNWLRCYYYE | 1.88
FVKILKDFPESDDPTNWLRCYYYE | 1.71
FVKILKDFPEHDDPTNWLRCYYYE | 3.15
FVKILKDFPETDDPTNWLRCYYYE | 2.96
FVKILKDFPEKDDPTNWLRCYYYE | 1.39
FVKILKDFPEADDPTNWLRCYYYE | 1.68
FVSILKDFPEEDDPTNWLRCYYYE | 2.32
FVQILKDFPEEDDPTNWLRCYYYE | 2.05
FVDILKDFPEEDDPTNWLRCYYYE | 2.11
FVCILKDFPEEDDPTNWLRCYYYE | 1.26
FVPILKDFPEEDDPTNWLRCYYYE | 2.45
FVRILKDFPEEDDPTNWLRCYYYE | 1.17
FVEILKDFPEEDDPTNWLRCYYYE | 2
FVNILKDFPEEDDPTNWLRCYYYE | 2.31
FVYILKDFPEEDDPTNWLRCYYYE | 1.01
FVAILKDFPEEDDPTNWLRCYYYE | 2.19
FVHILKDFPEEDDPTNWLRCYYYE | 1.43
FVTILKDFPEEDDPTNWLRCYYYE | 2.48
FVKILKDFPEEDDPKNWLRCYYYE | 1.93
FVKILKDFPEEDDPNNWLRCYYYE | 2.03
FVKILKDFPEEDDPHNWLRCYYYE | 1.3
FVKILKDFPEEDDPMNWLRCYYYE | 2.32
FVKILKDFPEEDDPDNWLRCYYYE | 1.79
FVKILKDFPEEDDPINWLRCYYYE | 1.44

Variant | protein stability index
FVKILKDFPEEDDPCNWLRCYYYE | 1.88
FVKILKDFPEEDDPQNWLRCYYYE | 2.02
FVKILKDFPEEDDPGNWLRCYYYE | 1.66
FVKILKDFPEEDDPANWLRCYYYE | 2.18
FVKILKDFPEEDDPPNWLRCYYYE | 2.88
FVKILKDFPEEDDPENWLRCYYYE | 2.85
FVKILKDFPEEDDPFNWLRCYYYE | 1.79
FVKILKDFPEEDDPRNWLRCYYYE | 3.22
FVKILKDFPEEDDPLNWLRCYYYE | 2.27
FVKILRDFPEEDDPTNWLRCYYYE | 1.17
FVKILNDFPEEDDPTNWLRCYYYE | 3.4
FVKILLDFPEEDDPTNWLRCYYYE | 1.96
FVKILFDFPEEDDPTNWLRCYYYE | 2.93
FVKILDDFPEEDDPTNWLRCYYYE | 1.96
FVKILEDFPEEDDPTNWLRCYYYE | 2.5
FVKILPDFPEEDDPTNWLRCYYYE | 1.56
FVKILTDFPEEDDPTNWLRCYYYE | 1.95
FVKILSDFPEEDDPTNWLRCYYYE | 3.11
FVKILIDFPEEDDPTNWLRCYYYE | 1.37
FVKILVDFPEEDDPTNWLRCYYYE | 3.01
FVKILQDFPEEDDPTNWLRCYYYE | 1.97
FVKILMDFPEEDDPTNWLRCYYYE | 1.65
FVKILKDFPIEDDPTNWLRCYYYE | 3.14
FVKILKDFPVEDDPTNWLRCYYYE | 1.62

Variant | protein stability index
FVKILKDFPSEDDPTNWLRCYYYE | 1.77
FVKILKDFPREDDPTNWLRCYYYE | 1.7
FVKILKDFPQEDDPTNWLRCYYYE | 2.48
FVKILKDFPAEDDPTNWLRCYYYE | 1.47
FVKILKDFPTEDDPTNWLRCYYYE | 2.6
FVKILKDFPMEDDPTNWLRCYYYE | 2.93
FVKILKDFPDEDDPTNWLRCYYYE | 1.16
FVKILKDFPEEDDITNWLRCYYYE | 1.15
FVKILKDFPEEDDRTNWLRCYYYE | 3.25
FVKILKDFPEEDDCTNWLRCYYYE | 1.19
FVKILKDFPEEDDHTNWLRCYYYE | 3.08
FVKILKDFPEEDDYTNWLRCYYYE | 1.3
FVKILKDFPEEDDSTNWLRCYYYE | 2.5
FVKILKDFPEEDDVTNWLRCYYYE | 1.84
FVKILKDFPEEDDATNWLRCYYYE | 2.72
FVKILKDFPEEDDFTNWLRCYYYE | 1.24
FVKILKDFPEEDDTTNWLRCYYYE | 1.11
FVKILKDFPEEDDKTNWLRCYYYE | 1.9
FVKILKDFPEEDDQTNWLRCYYYE | 1.47
FVKILKDFPEEDDDTNWLRCYYYE | 2.76
FVKILKDFPEEDDETNWLRCYYYE | 3.08
FVKILKDFPEEDDMTNWLRCYYYE | 1.72
FVKILKDFPEEDDWTNWLRCYYYE | 2.21
FVKILKDFPEEDDGTNWLRCYYYE | 2.52

Variant | protein stability index
FVKILKDKPEEDDPTNWLRCYYYE | 1.8
FVKILKDCPEEDDPTNWLRCYYYE | 1.25
FVKILKDEPEEDDPTNWLRCYYYE | 1.14
FVKILKDIPEEDDPTNWLRCYYYE | 1.25
FVKILKDRPEEDDPTNWLRCYYYE | 1.69
FVKILKDLPEEDDPTNWLRCYYYE | 1.15
FVKILKDSPEEDDPTNWLRCYYYE | 2.92
FVKILKDPPEEDDPTNWLRCYYYE | 1.68
FVKILKDVPEEDDPTNWLRCYYYE | 2.59
FVKILKDYPEEDDPTNWLRCYYYE | 4.09
FVKILKDQPEEDDPTNWLRCYYYE | 1.67
FVKILKDGPEEDDPTNWLRCYYYE | 1.18
FVKILKDHPEEDDPTNWLRCYYYE | 3.3
FVKILKDWPEEDDPTNWLRCYYYE | 3.2
FVKILKDMPEEDDPTNWLRCYYYE | 3.67
FVKILKDFIEEDDPTNWLRCYYYE | 1.65
FVKILKDFWEEDDPTNWLRCYYYE | 1.27
FVKILKDFCEEDDPTNWLRCYYYE | 1.26
FVKILKDFREEDDPTNWLRCYYYE | 1.6
FVKILKDFAEEDDPTNWLRCYYYE | 2.67
FVKILKDFKEEDDPTNWLRCYYYE | 1.37
FVKILKDFVEEDDPTNWLRCYYYE | 2.21
FVKILKDFTEEDDPTNWLRCYYYE | 1.73
FVKILKDFFEEDDPTNWLRCYYYE | 1.1

Variant | protein stability index
FVKILKDFEEEDDPTNWLRCYYYE | 1.74
FVKILKDFDEEDDPTNWLRCYYYE | 1.85
FVKILKDFYEEDDPTNWLRCYYYE | 1.38
FVKILKDFNEEDDPTNWLRCYYYE | 2.15
FVKILKDFMEEDDPTNWLRCYYYE | 2.75
FVKILKDFPEEDYPTNWLRCYYYE | 2.81
FVKILKDFPEEDHPTNWLRCYYYE | 2.54
FVKILKDFPEEDRPTNWLRCYYYE | 1.66
FVKILKDFPEEDWPTNWLRCYYYE | 3.15
FVKILKDFPEEDPPTNWLRCYYYE | 1.4
FVKILKDFPEEDSPTNWLRCYYYE | 2.46
FVKILKDFPEEDMPTNWLRCYYYE | 3.83
FVKILKDFPEEDEPTNWLRCYYYE | 2.69
FVKILKDFPEEDQPTNWLRCYYYE | 2.12
FVKILKDFPEEDCPTNWLRCYYYE | 1.96
FVKILKDFPEEDIPTNWLRCYYYE | 1.29
FVKILKDFPEEDGPTNWLRCYYYE | 1.04
FVKILKDFPEEDFPTNWLRCYYYE | 3.57
FVKILKDFPEEDTPTNWLRCYYYE | 2.72
FVKILKDFPEEDVPTNWLRCYYYE | 1.53
